# Like-named read-outs stand apart in the source and are kept apart here. *1 amine or outer side, *2 acyl side, *3 side chain or, on linkers, in order; H or OH if unused. Where a SMILES comes first, the peptide text is derived from it. Bridges are numbered along the chain shown (N, C = ends). Roman numbers before positions name the chains, in order. [ ]: non-standard residue; d: D form. The star is where a group is joined. TATA = O=C(CC[*:1])N1CN(C(=O)CC[*:2])CN(C(=O)CC[*:3])C1; Dolaproine = CO[C@@H]([C@@H]1CCCN1)[C@@H](C)C(=O)O; Dil = CC[C@H](C)[C@H](NC)[C@@H](CC(=O)O)OC; 1Nal = N[C@@H](Cc1cccc2ccccc12)C(=O)O; X3 = O=C(CCCC(=O)[*:2])NCCC(=O)[*:1]; PABC = O=C(OCc1ccc(N[*:1])cc1)[*:2]; X4 = C[C@@H](N*)[C@@H](O)c1ccccc1; Cya = N[C@@H](CS(=O)(=O)O)C(=O)O; Hyp = O=C(O)[C@@H]1C[C@@H](O)CN1; hArg = N=C(N)NCCCC[C@H](N)C(=O)O; Cit = NC(=O)NCCC[C@H](N)C(=O)O; NMeV = CN[C@H](C(=O)O)C(C)C; βAla = NCCC(=O)O; Sar = CNCC(=O)O
# Key:
# [1] = target: T1, human Nectin-4 (Homo sapiens, UniProt Q96NY8); assay: Nectin-4 Biacore SPR binding assay
# T1 sequence (Q96NY8 32-349): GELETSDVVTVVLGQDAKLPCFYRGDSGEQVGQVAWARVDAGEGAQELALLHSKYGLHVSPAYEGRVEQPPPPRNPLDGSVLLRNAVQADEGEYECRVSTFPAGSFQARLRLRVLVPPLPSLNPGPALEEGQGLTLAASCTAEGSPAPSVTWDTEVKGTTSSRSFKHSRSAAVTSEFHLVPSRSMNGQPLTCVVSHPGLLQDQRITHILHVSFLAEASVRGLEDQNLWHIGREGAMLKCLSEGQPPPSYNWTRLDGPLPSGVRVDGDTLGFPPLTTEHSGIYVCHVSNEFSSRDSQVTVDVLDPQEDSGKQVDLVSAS
# Experimental: Biacore experiments were performed to determine ka (M^−1 s^−1), kd (s^−1), KD (nM) values of monomeric peptides binding to human Necin-4 protein (obtained from Charles River).
# Human Nectin-4 (residues Gly32-Ser349; NCBI RefSeq: NP_112178.2) with a gp67 signal sequence and C-terminal FLAG tag was cloned into pFastbac-1 and baculovirus made using standard Bac-to-Bac™ protocols (Life Technologies). Sf21 cells at 1×10^6 ml^−1 in Excell-420 medium (Sigma) at 27° C. were infected at an MOI of 2 with a P1 virus stock and the supernatant harvested at 72 hours. […] The protein was eluted with 100 μg/ml FLAG peptide. The eluted protein was concentrated to 2 ml and loaded onto an S-200 Superdex column (GE Healthcare) in PBS at 1 ml/min. 2 ml fractions were collected and the fractions containing Nectin-4 protein were concentrated to 16 mg/ml.
# The protein was extensively desalted to remove uncoupled biotin using spin columns into PBS.
# For analysis of peptide binding, a Biacore 3000 instrument was used utilising a CM5 chip (GE Healthcare). Streptavidin was immobilized on the chip using standard amine-coupling chemistry at 25° C. with HBS-N (10 mM HEPES, 0.15 M NaCl, pH 7.4) as the running buffer. Briefly, the carboxymethyl dextran surface was activated with a 7 minute injection of a 1:1 ratio of 0.4 M 1-ethyl-3-(3-dimethylaminopropyl) carbodiimide hydrochloride (EDC)/0.1 M N-hydroxy succinimide (NHS) at a flow rate of 10 μl/min. For capture of streptavidin, the protein was diluted to 0.2 mg/ml in 10 mM sodium acetate (pH 4.5) and captured by injecting 120 μl of streptavidin onto the activated chip surface. Residual activated groups were blocked with a 7 minute injection of 1 M ethanolamine (pH 8.5) and biotinylated Nectin-4 captured to a level of 1,200-1,800 RU. Buffer was changed to PBS/0.05% Tween 20 and a dilution series of the peptides was prepared in this buffer with a final DMSO concentration of 0.5%. The top peptide concentration was 100 nM with 6 further 2-fold dilutions. The SPR analysis was run at 25° C. at a flow rate of 50 μl/min with 60 seconds association and dissociation between 400 and 1,200 seconds depending upon the individual peptide. Data were corrected for DMSO excluded volume effects. All data were double-referenced for blank injections and reference surface using standard processing procedures and data processing and kinetic fitting were performed using Scrubber software, version 2.0c (BioLogic Software). Data were fitted using simple 1:1 binding model allowing for mass transport effects where appropriate.
# [2] = target: T2, human Nectin-4 (Homo sapiens, UniProt Q96NY8); assay: Nectin-4 competition binding assay (fluorescence polarisation); conditions: competition with fluorescent peptide SEQ ID NO: 217; read-out: Ki
# T2 sequence (Q96NY8 32-510): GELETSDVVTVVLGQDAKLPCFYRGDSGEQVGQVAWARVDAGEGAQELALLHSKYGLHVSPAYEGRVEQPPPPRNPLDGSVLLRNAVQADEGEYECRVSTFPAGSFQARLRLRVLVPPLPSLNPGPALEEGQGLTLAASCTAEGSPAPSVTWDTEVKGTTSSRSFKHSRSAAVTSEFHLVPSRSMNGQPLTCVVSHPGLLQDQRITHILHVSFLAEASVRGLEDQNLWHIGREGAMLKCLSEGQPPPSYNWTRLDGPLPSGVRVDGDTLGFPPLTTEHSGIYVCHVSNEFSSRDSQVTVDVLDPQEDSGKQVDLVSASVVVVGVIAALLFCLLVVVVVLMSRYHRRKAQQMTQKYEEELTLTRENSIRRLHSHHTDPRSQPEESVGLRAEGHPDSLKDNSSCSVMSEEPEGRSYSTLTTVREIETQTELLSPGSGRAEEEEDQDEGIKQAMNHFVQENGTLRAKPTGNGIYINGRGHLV
# Outline: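 Serially diluted (1 in 2) peptides, max 5% DMSO, were mixed with human Nectin-4 and a fluorescent tracer peptide; FP read as in the direct binding assay. Ki from fitting mP values to a cubic competition equation using tracer concentration, tracer Kd and Nectin-4 concentration.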
# [3] = tested on: NCI-H292 xenograft; assay: Example 1: in vivo efficacy in NCI-H292 xenograft (NSCLC model) in BALB/c nude mice; set-up: species or system Mus Musculus; conditions: 5 mg/kg; day 9; average
# Experimental: (§1) The major endpoint was to see if the tumor growth could be delayed or mice could be cured. Tumor volume was measured three times weekly in two dimensions using a caliper, and the volume was expressed in mm^3 using the formula: V=0.5 a×b^2 where a and b are the long and short diameters of the tumor, respectively. The tumor size was then used for calculations of T/C value. The T/C value (in percent) is an indication of antitumor effectiveness; T and C are the mean volumes of the treated and control groups, respectively, on a given day. TGI was calculated for each group using the formula: TGI (%)=[1−(Ti−T0)/(Vi−V0)]×100; Ti is the average tumor volume of a treatment group on a given day, T0 is the average tumor volume of the treatment group on the day of treatment start, Vi is the average tumor volume of the vehicle control group on the same day with Ti, and V0 is the average tumor volume of the vehicle group on the day of treatment start.
# (§2) A one-way ANOVA was performed to compare tumor volume among groups, and when a significant F-statistics (a ratio of treatment variance to the error variance) was obtained, comparisons between groups were carried out with Games-Howell test. All data were analyzed using GraphPad Prism 5.0. P<0.05 was considered to be statistically significant.
# The NCI-H292 tumor cells will be maintained in medium supplemented with 10% heat inactivated fetal bovine serum at 37° C. in an atmosphere of 5% CO2 in air. The tumor cells will be routinely subcultured twice weekly. The cells growing in an exponential growth phase will be harvested and counted for tumor inoculation.
# Each mouse will be inoculated subcutaneously at the right flank with NCI-H292 tumor cells (10×10^6) in 0.2 ml of PBS for tumor development. The animals will be randomized and treatment will be started when the average tumor volume reaches approximately 158-406 mm^3.
# [4] = tested on: MDA-MB-468 xenograft; assay: Example 4: in vivo efficacy in MDA-MB-468 xenograft (breast cancer model) in Balb/c nude mice; set-up: species or system Mus Musculus; conditions: 5 mg/kg
# [5] = tested on: HCT116 xenograft; assay: Example 9.2: in vivo efficacy in HCT116 xenograft in Balb/c nude mice; set-up: species or system Mus Musculus; conditions: 3 mg/kg biw
# [6] = tested on: NCI-H292 xenograft; assay: Example 9.5: in vivo efficacy in NCI-H292 xenograft in Balb/c nude mice; set-up: species or system Mus Musculus; conditions: 5 mg/kg; day 9; average
# [7] = tested on: MDA-MB-468 xenograft; assay: Example 9.4: in vivo efficacy in MDA-MB-468 xenograft in Balb/c nude mice; conditions: 5 mg/kg
# Experimental: as §1, §2
# • Species: Mus Musculus • Strain: Balb/c nude • Age: 6-8 weeks • Sex: female • Body weight: 18-22 g • Number of animals: 41 mice plus spare 3.1.2.
# The tumor cells were maintained in Leibovitz's L-15 medium supplemented with 10% heat inactivated fetal bovine serum at 37° C. in an atmosphere of 5% CO2 in air. The tumor cells were routinely subcultured twice weekly. The cells growing in an exponential growth phase were harvested and counted for tumor inoculation.
# 41 animals were randomized when the average tumor volume reached 196 mm^3.
# [8] = tested on: HT-1376 xenograft; assay: Example 2: in vivo efficacy in HT-1376 xenograft (bladder cancer model) in CB17-SCID mice; conditions: 3 mg/kg
# Experimental: as §1
# A one-way ANOVA was performed to compare tumor volume among groups, and when a significant F-statistics (a ratio of treatment variance to the error variance) was obtained, comparisons between groups were carried out with Games-Howell test. […] P<0.05 was considered to be statistically significant.
# • Species: Mus Musculus • Strain: CB17-SCID • Age: 6-8 weeks • Sex: female • Body weight: 18-22 g • Number of animals: 21-41 mice plus spare • Animal supplier: Shanghai LC Laboratory Animal Co., LTD.
# The HT-1376 tumor cells were maintained in vitro as a monolayer culture in EMEM medium supplemented with 10% heat inactivated fetal bovine serum at 37° C. in an atmosphere of 5% CO2 in air. The tumor cells were routinely subcultured twice weekly by trypsin-EDTA treatment.
# Each mouse was inoculated subcutaneously at the right flank with HT-1376 tumor cells (5×10^6) in 0.2 ml of PBS with matrigel (1:1) for tumor development. Animals were randomized when the average tumor volume reached 153-164 mm^3.
# Tumor growth inhibition rate for Test articles in the HT-1376 xenograft model was calculated based on tumor volume measurements at day 21 after the start of treatment.
# [9] = tested on: NCI-H526 xenograft; assay: Example 9.6: in vivo efficacy in NCI-H526 xenograft in Balb/c nude mice
# Experimental: as §1, §2
# • Species: Mus Musculus • Strain: Balb/c nude • Age: 6-8 weeks • Sex: female • Body weight: 18-22 g • Number of animals: 21 mice plus spare 3.1.2.
# The NCI-H526 cells were maintained in medium supplemented with 10% heat inactivated fetal bovine serum at 37° C. in an atmosphere of 5% CO2 in air. The tumor cells were routinely subcultured twice weekly. The cells growing in an exponential growth phase were harvested and counted for tumor inoculation.
# Each mouse was inoculated subcutaneously at the right flank with NCI-H526 tumor cells (5.0×10^6 in 0.2 ml of PBS for tumor development. 21 animals were randomized when the average tumor volume reached 181 mm^3. The test article administration and the animal numbers in each group were shown in the experimental design table.
# Tumor growth inhibition rate for test articles in the NCI-H526 xenograft model was calculated based on tumor volume measurements at day 14 after the start of the treatment.
# [10] = tested on: MDA-MB-468 cell line; assay: Example 11: HCS assay, Nectin-4 BDC binding study; type: cell-based
# Experimental: HCS assay was used in Nectin-4 BDC binding study. Cells were incubated with test agent and then washed. Detection was by a fluorescent antibody to MMAE.
structure (smiles),measurement,setting,value
"CC[C@H](C)[C@@H]1NC(=O)[C@@H]2CCCN2C(=O)[C@H](Cc2c[nH]c3ccccc23)NC(=O)[C@H](CO)NC(=O)[C@H](Cc2c[nH]c3ccccc23)NC(=O)[C@H](CC(N)=O)NC(=O)[C@H](CCCCN)NC(=O)[C@H](CCSC)NC(=O)[C@@H]2CSCCC(=O)N3CN(CN(C3)C(=O)CCSC[C@H](NC(=O)[C@H](C)N)C(=O)N3CCC[C@H]3C(=O)N[C@@H](Cc3ccccc3)C(=O)NCC(=O)N2)C(=O)CCSC[C@@H](C(=O)N[C@@H](C)C(N)=O)NC(=O)[C@H](Cc2c[nH]c3ccccc23)NC1=O [BCY428, A-(SEQ ID NO: 1)-A]",Kd,[1],334 nM
same,Ki,[2],61 nM
"CC[C@H](C)[C@@H]1NC(=O)[C@@H]2CCCN2C(=O)[C@H](Cc2c[nH]c3ccccc23)NC(=O)[C@H](CO)NC(=O)[C@H](Cc2c[nH]c3ccccc23)NC(=O)[C@H](CC(N)=O)NC(=O)[C@H](CCCCN)NC(=O)[C@H](CCSC)NC(=O)[C@@H]2CSCCC(=O)N3CN(CN(C3)C(=O)CCSC[C@H](NC(C)=O)C(=O)N3CCC[C@H]3C(=O)N[C@@H](Cc3ccccc3)C(=O)NCC(=O)N2)C(=O)CCSC[C@@H](C(N)=O)NC(=O)[C@H](Cc2c[nH]c3ccccc23)NC1=O [BCY7390, Ac-(SEQ ID NO: 1)] (Ac-CPFGCMKNWSWPIWC-NH2; linker 1-5-15 via TATA; C-terminus assumed)",Kd,[1],40.3 nM
same,Ki,[2],17.1 nM
"CC[C@H](C)[C@@H]1NC(=O)[C@@H]2CCCN2C(=O)[C@H](Cc2c[nH]c3ccccc23)NC(=O)[C@H](CO)NC(=O)[C@H](Cc2c[nH]c3ccccc23)NC(=O)[C@H](CC(N)=O)NC(=O)[C@H](CCCCN)NC(=O)[C@H](CCSC)NC(=O)[C@@H]2CSCCC(=O)N3CN(CN(C3)C(=O)CCSC[C@H](NC(C)=O)C(=O)N3CCC[C@H]3C(=O)N[C@@H](Cc3ccccc3)C(=O)NCC(=O)N2)C(=O)CCSC[C@@H](C(=O)N[C@H](C(=O)N[C@@H](CC(N)=O)C(=O)N[C@@H](CCCCN)C(N)=O)[C@@H](C)O)NC(=O)[C@H](Cc2c[nH]c3ccccc23)NC1=O [BCY7391, Ac-(SEQ ID NO: 1)-TNK] (Ac-CPFGCMKNWSWPIWCTNK-NH2; linker 1-5-15 via TATA; C-terminus assumed)",Kd,[1],59.8 nM
same,Ki,[2],13.3 nM
"CC[C@H](C)[C@@H]([C@@H](CC(=O)N1CCC[C@H]1[C@H](OC)[C@@H](C)C(=O)N[C@H](C)[C@@H](O)c1ccccc1)OC)N(C)C(=O)[C@@H](NC(=O)[C@H](C(C)C)N(C)C(=O)OCc1ccc(NC(=O)[C@H](CCCNC(N)=O)NC(=O)[C@@H](NC(=O)CCCC(=O)NCCC(=O)N(C)CC(=O)N(C)CC(=O)N(C)CC(=O)N(C)CC(=O)N(C)CC(=O)N(C)CC(=O)N(C)CC(=O)N(C)CC(=O)N(C)CC(=O)N(C)CC(=O)N[C@H]2CSCCC(=O)N3CN4CN(C3)C(=O)CCSC[C@H](NC(=O)[C@@H](CCCNC(=N)N)NC(=O)[C@H](Cc3cccc5ccccc35)NC(=O)[C@@H]3CCCN3C2=O)C(=O)N[C@@H](CC(C)C)C(=O)N[C@@H](CCCCNC(=N)N)C(=O)N[C@@H](Cc2c[nH]cn2)C(=O)N[C@@H](Cc2c[nH]c3ccccc23)C(=O)N[C@@H](CO)C(=O)N[C@@H]([C@@H](C)O)C(=O)N2CCC[C@H]2C(=O)N2C[C@H](O)C[C@H]2C(=O)N[C@@H](Cc2c[nH]c3ccccc23)C(=O)N[C@H](C(N)=O)CSCCC4=O)C(C)C)cc1)C(C)C [BCY8253, MMAE-PABC-Cit-Val-Glutaryl-BCY8231] (I: [Sar][Sar][Sar][Sar][Sar][Sar][Sar][Sar][Sar][Sar]CP[1Nal][dR]CL[hArg]HWSTP[Hyp]WC-NH2 / II: V[Cit][PABC][NMeV]V[Dil][Dolaproine]-X4; linker I:11-I:15-I:25 via TATA; linker I:N-II:N via X3)",bodyweight loss,[3],> 15%
same,animal body weight (in words),[4],severe animal body weight loss
same,death,[4],found dead on day 20
same,bodyweight loss,[5],15%
same,bodyweight loss,[6],> 15%
same,animal body weight (in words),[7],severe animal body weight loss
same,death,[7],found dead on day 20
"CC[C@H](C)[C@@H]([C@@H](CC(=O)N1CCC[C@H]1[C@H](OC)[C@@H](C)C(=O)N[C@H](C)[C@@H](O)c1ccccc1)OC)N(C)C(=O)[C@@H](NC(=O)[C@H](C(C)C)N(C)C(=O)OCc1ccc(NC(=O)[C@H](CCCNC(N)=O)NC(=O)[C@@H](NC(=O)CCCC(=O)NCCC(=O)N(C)CC(=O)N(C)CC(=O)N(C)CC(=O)N(C)CC(=O)N(C)CC(=O)N(C)CC(=O)N(C)CC(=O)N(C)CC(=O)N(C)CC(=O)N(C)CC(=O)N[C@H]2CSCCC(=O)N3CN4CN(C3)C(=O)CCSC[C@H](NC(=O)[C@@H](CCCNC(=N)N)NC(=O)[C@H](Cc3cccc5ccccc35)NC(=O)[C@@H]3CCCN3C2=O)C(=O)N[C@@H](CCSC)C(=O)N[C@@H](CCCCNC(=N)N)C(=O)N[C@@H](CC(=O)O)C(=O)N[C@@H](Cc2c[nH]c3ccccc23)C(=O)N[C@@H](CO)C(=O)N[C@@H]([C@@H](C)O)C(=O)N2CCC[C@H]2C(=O)N2C[C@H](O)C[C@H]2C(=O)N[C@@H](Cc2c[nH]c3ccccc23)C(=O)N[C@H](C(N)=O)CSCCC4=O)C(C)C)cc1)C(C)C [BCY8255, MMAE-PABC-Cit-Val-Glutaryl-BCY8235] (I: [Sar][Sar][Sar][Sar][Sar][Sar][Sar][Sar][Sar][Sar]CP[1Nal][dR]CM[hArg]DWSTP[Hyp]WC-NH2 / II: V[Cit][PABC][NMeV]V[Dil][Dolaproine]-X4; linker I:11-I:15-I:25 via TATA; linker I:N-II:N via X3)",animal body weight (in words),[4],severe animal body weight loss
same,death,[8],found dead on day 16
same,animal bodyweight loss,[9]; 3 mg/kg biw,over 15%
same,animal bodyweight loss,[9]; 5 mg/kg qw,over 15%
same,bodyweight loss,[5],15%
same,animal body weight (in words),[7],severe animal body weight loss
"CSCC[C@@H]1NC(=O)[C@@H]2CSCCC(=O)N3CN(CN(C3)C(=O)CCSC[C@H](NC(=O)CN(C)C(=O)CN(C)C(=O)CN(C)C(=O)CN(C)C(=O)CN(C)C(=O)CN(C)C(=O)CN(C)C(=O)CN(C)C(=O)CN(C)C(=O)CN(C)C(=O)CCNC(C)=O)C(=O)N3CCC[C@H]3C(=O)N[C@@H](Cc3cccc4ccccc34)C(=O)N[C@H](CC(=O)O)C(=O)N2)C(=O)CCSC[C@@H](C(N)=O)NC(=O)[C@H](Cc2c[nH]c3ccccc23)NC(=O)[C@@H]2C[C@@H](O)CN2C(=O)[C@@H]2CCCN2C(=O)[C@H]([C@@H](C)O)NC(=O)[C@H](CO)NC(=O)[C@H](Cc2c[nH]c3ccccc23)NC(=O)[C@H](CC(=O)O)NC(=O)[C@H](CS(=O)(=O)O)NC1=O [BCY8277, Ac-[B-Ala][Sar10]-(SEQ ID NO: 178)] (Ac-[βAla][Sar][Sar][Sar][Sar][Sar][Sar][Sar][Sar][Sar][Sar]CP[1Nal][dD]CM[Cya]DWSTP[Hyp]WC-NH2; linker 12-16-26 via TATA; C-terminus assumed)",Kd,[1],5.99 nM
"CC[C@H](C)[C@@H]([C@@H](CC(=O)N1CCC[C@H]1[C@H](OC)[C@@H](C)C(=O)N[C@H](C)[C@@H](O)c1ccccc1)OC)N(C)C(=O)[C@@H](NC(=O)[C@@H](NC)C(C)C)C(C)C [MMAE, Monomethyl auristatin E, reference compound] (H-[NMeV]V[Dil][Dolaproine]-X4)",binding affinity on MDA-MB-468 cell line (in words),[10],almost no detectable binding affinity
same,Max fluorescent intensity,"[10]; MDA-MB-468 cell line, fluorescent antibody to MMAE",2.95
same,Kd,"[10]; MDA-MB-468 cell line, historical data, read-out: Historical Kd",> 10000 nM
same,Kd,"[10]; MDA-MB-468 cell line, read-out: Kd",> 10000 nM
same,retention on the cells (in words),[10]; detection by a fluorescent antibody to MMAE,minimal retention

# Source: patent US12459974B2, “Bicyclic peptide ligands specific for Nectin-4” (priority 2018, dated 2025)
